According to US20140037667A1:

Target: env polypeptide of the LR1-C1 isolate (HIV-1 (variant of clade B primary isolate AC10))
Test: virion capture assay, titration of virions on 4E10-coated plates, p24 ELISA

For 4E10 antibody, the fold increase in affinity against the AC10 wild-type variant was 4 fold.
